US20230265179A1

Assays:
[1] = biological target: CD40L over-expressed on Expi293 cells (UniProt P29965); assay: flow cytometry, 100 nM antibody, CD40L-Expi293 vs parent Expi293 cells
[2] = biological target: CD40L (UniProt P29965); assay: flow cytometry, 100 nM IgG, CD40L over-expressing Expi293 cells over parent Expi293 cells
CD40L, sequence (P29965 whole entry): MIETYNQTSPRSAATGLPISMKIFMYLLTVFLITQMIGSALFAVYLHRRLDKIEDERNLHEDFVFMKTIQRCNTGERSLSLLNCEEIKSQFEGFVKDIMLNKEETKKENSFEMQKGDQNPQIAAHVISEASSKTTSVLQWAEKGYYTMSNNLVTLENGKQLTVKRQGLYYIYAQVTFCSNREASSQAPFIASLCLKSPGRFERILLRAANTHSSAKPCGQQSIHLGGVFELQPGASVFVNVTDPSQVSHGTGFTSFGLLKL

CD40L over-expressed on Expi293 cells, sequence (P29965 whole entry): as above

100 nM FACS (MFI Ratio) [1]	100 nM FACS (MFI Ratio) [2] [MFI ratio]	Binder
1.9	–	CD40L-154 (VHH) VHH: EVQLVESGGGLVQPGGSLRLSCAASGRTSRSYEMGWFRQAPGKEREFVAAIDWDGSRTQYADSVKGRFTISADNSKNTAYLQMNSLKPEDTAVYYCAVPRETGWDGDWGQGTLVTVSS
1.8	–	CD40L-182 (antibody, V domains shown) VH: EVQLLESGGGLVQPGGSLRLSCAASGGYNFRDYMHWVRQAPGKGLEWVSYISSSGSSTYYADSVKGRFTISRDNSKNTLYLQMNSLRAEDTAVYYCAKNLGQGFDYWGQGTLVTVSS VL: DIQMTQSPSSLSASVGDRVTITCSGDNLGDKYVHWYQQKPGKAPKLLIYGKKNRPSGVPSRFSGSGSGTDFTLTISSLQPEDFATYYCQAWDRTVVFGQGTKVEIK
2	–	CD40L-141 (VHH) VHH: EVQLVESGGGLVQPGGSLRLSCAASGGTLDDYAMGWFRQAPGKEREFLASVSWGFGSTYYADSVKGRFTISADNSKNTAYLQMNSLKPEDTAVYYCAKDGGSYGMDVWGQGTLVTVSS
–	1.9	CD40L-385 (antibody, V domains shown) VH: EVQLLESGGGLVQPGGSLRLSCAASGFTFSNYAMSWVRQAPGKGLEWVSAITGSGSTTYYADSVKGRFTISRDNSKNTLYLQMNSLRAEDTAVYYCARAHDYDSMLMDYWGQGTLVTVSS VL: DIQMTQSPSSLSASVGDRVTITCRASQSIKSYLNWYQQKPGKAPKLLIYSASSLLSGVPSRFSGSGSGTDFTLTISSLQPEDFATYYCQQSYTLPRTFGGGTKVEIK
–	1.8	CD40L-410 (antibody, V domains shown) VH: EVQLLESGGGLVQPGGSLRLSCAASGFTFRTYAMGWVRQAPGKGLEWVSAISGSGGIAYYADSVKGRFTISRDNSKNTLYLQMNSLRAEDTAVYYCARHYYYDSSDAFDIWGQGTLVTISS VL: DIQMTQSPFSLSASVGDRVTITCRASQNILTYLNWYQQKPGKAPKLLIYGASTLRSGVPSRFSGSGSGTDFTLTISSLQPEDFATYYCQQSYRLPLTFGGGTKVEIK
–	1.7	CD40L-417 (antibody, V domains shown) VH: EVQLLESGGGLVQPGGSLRLSCAASGFTFSKYAMNWVRQAPGKGLEWVSAISGSGESTYYADSVKGRFTISRDNSKNTLYLQMNSLRAEDTAVYYCARHGGYYYYYMDVWGQGTLVTVSS VL: DIQMTQSPSSLSASVGDRVTITCRGSQSISSFLNWYQQKPGKAPKLLIYAASKLHSGVPSRFSGSGSGTDFTLTISSLQPEDFATYYCQHSYSTPLTFGGGTKVEIK
–	1.9	CD40L-421 (antibody, V domains shown) VH: EVQLLESGGGLVQPGGSLRLSCAASGFTFSKYAMNWVRQAPGKGLEWVSAISGSGESTYYADSVKGRFTISRDNSKNTLYLQMNSLRAEDTAVYYCATDYGDYDRLNFDLWGQGTLVTVSS VL: DIQMTQSPSSLSASVGDRVTITCRGSQSISSFLNWYQQKPGKAPKLLIYAASKLHSGVPSRFSGSGSGTDFTLTISSLQPEDFATYYCQHSYSTPLTFGGGTKVEIK
–	2	CD40L-392 (antibody, V domains shown) VH: EVQLLESGGGLVQPGGSLRLSCAASGFTFSSFDMTWVRQAPGKGLEWVSGISGSGGTTFYADSVKGRFTISRDNSKNTLYLQMNSLRAEDTAVYYCVRDVSDIYGYLDDAFDIWGQGTLVTVSS VL: DIQMTQSPSSLSASVGDRVTITCRASQDIRNYLNWYQQKPGKAPKLLIYATSSLQTGVPSRFSGSGSGTDFTLTISSLQPEDFATYYCQQSYGAPLTFGGGTKVEIK
–	1.8	CD40L-401 (antibody, V domains shown) VH: EVQLLESGGGLVQPGGSLRLSCAASGFTFGNYAMTWVRQAPGKGLEWVSAISGLGGSTYYADSVKGRFTISRDNSKNTLYLQMNSLRAEDTAVYYCTSSDPTYYYDSNGKSSLGMDVWGQGTLVTVSS VL: DIQMTQSPSSLSASVGDRVTITCRGSQSISSFLNWYQQKPGKAPKLLIYAASKLHSGVPSRFSGSGSGTDFTLTISSLQPEDFATYYCQHSYSTPLTFGGGTKVEIK
